{"source": "patent US20200353067A1", "target": "CX3CR1 (fractalkine receptor) (human) (UniProt P49238)", "sequence (P49238 whole entry)": "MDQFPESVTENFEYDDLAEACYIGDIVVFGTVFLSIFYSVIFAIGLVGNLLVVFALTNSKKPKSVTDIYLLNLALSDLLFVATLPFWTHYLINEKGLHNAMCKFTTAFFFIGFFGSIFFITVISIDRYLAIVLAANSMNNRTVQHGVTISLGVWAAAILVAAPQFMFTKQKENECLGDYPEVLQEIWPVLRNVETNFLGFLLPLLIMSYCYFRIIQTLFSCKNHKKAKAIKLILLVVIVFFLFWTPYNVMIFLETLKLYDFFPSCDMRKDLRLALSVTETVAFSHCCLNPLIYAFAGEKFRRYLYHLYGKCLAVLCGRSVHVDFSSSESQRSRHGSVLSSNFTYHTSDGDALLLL", "assay": "cell-based or functional assay", "data": [{"substance": "RSV A2 strain G-protein (surface attachment glycoprotein) (from UniProt P03423 1-298) (ligand)", "values": [{"measurement": "viral load", "result": 2.3, "unit": "fold"}]}]}
